Results reported in paper doi:10.1101/2025.08.13.669063.

Key:
[1] = molecular target: cobalamin binding domains of Thermus thermophilus CarH (TtCBD) (Thermus thermophilus); test: crystal structure
[2] = molecular target: cobalamin binding domains of Thermus thermophilus CarH (TtCBD) (Thermus thermophilus); test: time-resolved X-ray solution scattering

Substance: cobalamin binding domains of Thermus thermophilus CarH (TtCBD) (domain or fragment)
- stoichiometry N [1]: 4
- stoichiometry N [2]: 4
- time constant of tetramer dissociation after photoexcitation [2]: 620 ms
